From patent publication US20050106100

T1: Ac-PL-NLys˜S(OBn)-LL-Ahxh-Ac[C14] (not fully specified)
T1 chain: PLXSLL

T2: Ac-PLG˜Hphe-OLA-Ahxh-Hynic
T2 chain: PLGXXLA

T3: Ac-PLG˜Hphe-OL-Ambh-Hynic
T3 chain: PLGXXL

T4: Ac-NGlu-POG˜Hphe-L-Hynic (not fully specified)
T4 chain: XPXGXL

T5: Ac-PR-Cit˜LSA-Ahxh-Hynic
T5 chain: PRXLSA

T6: Ac-VRW˜LTA-Ahxh-Hynic (not fully specified)
T6 chain: VRWLTA

T7: Ac-PLG˜Hphe-R-Ahxh-Ac[C14] (not fully specified)
T7 chain: PLGXR

T8: Ac-PLG˜LAL-Ahxh-Hynic
T8 chain: PLGLAL

T9: Hynic-fff-Ahx-PLG˜Hphe-OLEE-OH
T9 chain: FFFXPLGXXLEE

T10: Ac-P-NLeu-G˜LL-Ahxh-Ac[C14] (not fully specified)
T10 chain: PXGLL

T11: Ac-PRG˜Hphe-Dab-A-Ahxh-Hynic
T11 chain: PRGXXA

T12: Ac-P-Cit-Abu˜LTA-Ahxh-Hynic (not fully specified)
T12 chain: PXXLTA

T13: Ac-PLG˜LYL-Ahxh-Hynic (not fully specified)
T13 chain: PLGLYL

T14: Ac-POG˜Hphe-Smc-T-Ahxh-Hynic
T14 chain: PXGXXT

T15: Ac-P-Cit-G˜Hphe-Cit-L-Ahxh-Hynic (not fully specified)
T15 chain: PXGXXL

T16: Ac-POG˜Hphe-L-Nle-Ahxh-Hynic
T16 chain: PXGXLX

T17: Ac-PLG˜LYT-Ahxh-Ac[C14] (not fully specified)
T17 chain: PLGLYT

T18: Ac-PLG˜Hphe-YL-Ahxh-Hynic (not fully specified)
T18 chain: PLGXYL

T19: Ac-PLG˜LYT-Ahxh-Hynic (not fully specified)
T19 chain: PLGLYT

T20: Ac-PL-NLys˜LL-Ambh-Ac[C14] (not fully specified)
T20 chain: PLXLL

T21: Ac-POG˜Hphe-LTR-Ahxh-Ac[C14]
T21 chain: PXGXLTR

T22: Ac-P-Cha-G˜Smc-HA-Ahxh-Hynic (not fully specified)
T22 chain: PXGXHA

T23: H-DArg-P-Cit-G˜cLeu-LA-Ahxh-Hynic (not fully specified)
T23 chain: RPXGXLA

T24: Ac-PLG˜LWA-Ahxh-Hynic (not fully specified)
T24 chain: PLGLWA

T25: H-NLys-PLG˜LYT-Ahxh-Hynic (not fully specified)
T25 chain: XPLGLYT

T26: Ac-NGlu-PLG˜Hphe-YL-Ahxh-Ac[C14] (not fully specified)
T26 chain: XPLGXYL

T27: Ac-NLys-PLG˜LL-Ahxh-Hynic (not fully specified)
T27 chain: XPLGLL

T28: Ac-NGlu-PLG˜Hphe-YL-Ambh-Hynic (not fully specified)
T28 chain: XPLGXYL


Legend:
[1] = target: T1, Ac-PL-NLys˜S(OBn)-LL-Ahxh-Ac[C14]
[2] = target: T2, Ac-PLG˜Hphe-OLA-Ahxh-Hynic
[3] = target: T3, Ac-PLG˜Hphe-OL-Ambh-Hynic
[4] = target: T4, Ac-NGlu-POG˜Hphe-L-Hynic
[5] = target: T5, Ac-PR-Cit˜LSA-Ahxh-Hynic
[6] = target: T6, Ac-VRW˜LTA-Ahxh-Hynic
[7] = target: T7, Ac-PLG˜Hphe-R-Ahxh-Ac[C14]
[8] = target: T8, Ac-PLG˜LAL-Ahxh-Hynic
[9] = target: T9, Hynic-fff-Ahx-PLG˜Hphe-OLEE-OH
[10] = target: T10, Ac-P-NLeu-G˜LL-Ahxh-Ac[C14]
[11] = target: T11, Ac-PRG˜Hphe-Dab-A-Ahxh-Hynic
[12] = target: T12, Ac-P-Cit-Abu˜LTA-Ahxh-Hynic
[13] = target: T13, Ac-PLG˜LYL-Ahxh-Hynic
[14] = target: T14, Ac-POG˜Hphe-Smc-T-Ahxh-Hynic
[15] = target: T15, Ac-P-Cit-G˜Hphe-Cit-L-Ahxh-Hynic
[16] = target: T16, Ac-POG˜Hphe-L-Nle-Ahxh-Hynic
[17] = target: T17, Ac-PLG˜LYT-Ahxh-Ac[C14]
[18] = target: T18, Ac-PLG˜Hphe-YL-Ahxh-Hynic
[19] = target: T19, Ac-PLG˜LYT-Ahxh-Hynic
[20] = target: T20, Ac-PL-NLys˜LL-Ambh-Ac[C14]
[21] = target: T21, Ac-POG˜Hphe-LTR-Ahxh-Ac[C14]
[22] = target: T22, Ac-P-Cha-G˜Smc-HA-Ahxh-Hynic
[23] = target: T23, H-DArg-P-Cit-G˜cLeu-LA-Ahxh-Hynic
[24] = target: T24, Ac-PLG˜LWA-Ahxh-Hynic
[25] = target: T25, H-NLys-PLG˜LYT-Ahxh-Hynic
[26] = target: T26, Ac-NGlu-PLG˜Hphe-YL-Ahxh-Ac[C14]
[27] = target: T27, Ac-NLys-PLG˜LL-Ahxh-Hynic
[28] = target: T28, Ac-NGlu-PLG˜Hphe-YL-Ambh-Hynic

| Protein | Kcat/Km [1] [M⁻¹ s⁻¹] | Kcat/Km [2] [M⁻¹ s⁻¹] | Kcat/Km [3] [M⁻¹ s⁻¹] | Kcat/Km [4] [M⁻¹ s⁻¹] | Kcat/Km [5] [M⁻¹ s⁻¹] | Kcat/Km [6] [M⁻¹ s⁻¹] | Kcat/Km [7] [M⁻¹ s⁻¹] | Kcat/Km [8] [M⁻¹ s⁻¹] | Kcat/Km [9] [M⁻¹ s⁻¹] | Kcat/Km [10] [M⁻¹ s⁻¹] | Kcat/Km [11] [M⁻¹ s⁻¹] | Kcat/Km [12] [M⁻¹ s⁻¹] | Kcat/Km [13] [M⁻¹ s⁻¹] | Kcat/Km [14] [M⁻¹ s⁻¹] | Kcat/Km [15] [M⁻¹ s⁻¹] | Kcat/Km [16] [M⁻¹ s⁻¹] | Kcat/Km [17] [M⁻¹ s⁻¹] | Kcat/Km [18] [M⁻¹ s⁻¹] | Kcat/Km [19] [M⁻¹ s⁻¹] | Kcat/Km [20] [M⁻¹ s⁻¹] | other results |
| --- | --- | --- | --- | --- | --- | --- | --- | --- | --- | --- | --- | --- | --- | --- | --- | --- | --- | --- | --- | --- | --- |
| MMP-2 (protein) APSPIIKFPGDVAPKTDKELAVQYLNTFYGCPKESCNLFVLKDTLKKMQKFFGLPQTGDLDQNTIETMRKPRCGNPDVANYNFFPRKPKWDKNQITYRIIGYTPDLDPETVDDAFARAFQVWSDVTPLRFSRIHDGEADIMINFGRWEHGDGYPFDGKDGLLAHAFAPGTGVGGDSHFDDDELWTLGEGQVVRVKYGNADGEYCKFPFLFNGKEYNSCTDTGRSDGFLWCSTTYNFEKDGKYGFCPHEALFTMGGNAEGQPCKFPFRFQGTSYDSCTTEGRTDGYRWCGTTEDYDRDKKYGFCPETAMSTVGGNSEGAPCVFPFTFLGNKYESCTSAGRSDGKMWCATTANYDDDRKWGFCPDQGYSLFLVAAHEFGHAMGLEHSQDPGALMAPIYTYTKNFRLSQDDIKGIQELYGASPDIDLGTGPTPTLGPVTPEICKQDIVFDGIAQIRGEIFFFKDRFIWRTVTPRDKPMGPLLVATFWPELPEKIDAVYEAPQEEKAVFFAGNEYWIYSASTLERGYPKPLTSLGLPPDVQRVDAAFNWSKNKKTYIFAGDKFWRYNEVKKKMDPGFPKLIADAWNAIPDNLDAVVDLQGGGHSYFFKGAYYLKLENQSLKSVKFGSIKSDWLGC | 165000 | 29500 | 42700 | 265 | 14700 | 14400 | > 500000 | 4380 | 11600 | 0 | 591000 | 55400 | 65300 | > 500000 | 42600 | 401000 | 413000 | > 100000 | 186000 | 68600 | Kcat/Km [21]: > 500000 M⁻¹ s⁻¹; Kcat/Km [22]: 146000 M⁻¹ s⁻¹; Kcat/Km [23]: 77 M⁻¹ s⁻¹; Kcat/Km [24]: > 500000 M⁻¹ s⁻¹; Kcat/Km [25]: 85100 M⁻¹ s⁻¹; Kcat/Km [26]: 351000 M⁻¹ s⁻¹; Kcat/Km [27]: 76300 M⁻¹ s⁻¹ |
| human MMP-9 (protein) MRTPRCGVPDLGRFQTFEGDLKWHHHNITYWIQNYSEDLPRAVIDDAFARAFALWSAVTPLTFTRVYSRDADIVIQFGVAEHGDGYPFDGKDGLLAHAFPPGPGIQGDAHFDDDELWSLGKGVVVPTRFGNADGAACHFPFIFEGRSYSACTTDGRSDGLPWCSTTANYDTDDRFGFCPSERLYTQDGNADGKPCQFPFIFQGQSYSACTTDGRSDGYRWCATTANYDRDKLFGFCPTRADSTVMGGNSAGELCVFPFTFLGKEYSTCTSEGRGDGRLWCATTSNFDSDKKWGFCPDQGYSLFLVAAHEFGHALGLDHSSVPEALMYPMYRFTEGPPLHKDDVNGIRHLYGPRPEPEPRPPTTTTPQPTAPPTVCPTGPPTVHPSERPTAGPTGPPSAGPTGPPTAGPSTATTVPLSPVDDACNVNIFDAIAEIGNQLYLFKDGKYWRFSEGRGSRPQGPFLIADKWPALPRKLDSVFEERLSKKLFFFSGRQVWVYTGASVLGPRRLDKLGLGADVAQVTGALRSGRGKMLLFSGRRLWRFDVKAQMVDPRSASEVDRMFPGVPLDTHDVFQYREKAYFCQDRFYWRVSSRSELNQVDQVGYVTYDILQCPED | 271000 | 14100 | 57700 | 613 | 40100 | 29900 | > 500000 | 7140 | 1740 | 0 | 474000 | 77800 | 95000 | 85400 | 11400 | 52000 | > 500000 | > 100000 | 223000 | 88000 | Kcat/Km [28]: > 100000 M⁻¹ s⁻¹; Kcat/Km [21]: 246000 M⁻¹ s⁻¹; Kcat/Km [22]: > 250000 M⁻¹ s⁻¹; Kcat/Km [23]: 0 M⁻¹ s⁻¹; Kcat/Km [24]: > 500000 M⁻¹ s⁻¹; Kcat/Km [25]: 149000 M⁻¹ s⁻¹; Kcat/Km [26]: 213000 M⁻¹ s⁻¹; Kcat/Km [27]: 83200 M⁻¹ s⁻¹ |
